In the DeepSol protein solubility set:

test: soluble on expression in E. coli; label from the status in PepcDB or PDB records

Sequence | soluble on expression in E. coli
MGSDKIHHHHHHMKVVFVSYEVFPFAKVGGLADVAGTLPKYLKKHGVDVTIVMPKHRIVEKNAEKFGYEIKKVAESLSVSHVKTDQKFDIYESVLPGSDVKTYFVANDYYFSAEDVYAGPDLGEQAIFFCAATLDLVKHLDLKPDIVHVNDWQTALIPVYLKTVYRDDPYFSRTATVLTIHNLGYQGVFDPKYLSFAGLPDYVYTIDGLEFYGQLNFLKGGIVFSDVINTVSPTYAEEIQTEEYGEKLDGVLRMRSKDLYGILNGIDYELYNPATDRYIYVNYDVNRLELKWENKVKLQEELGLPVNKETAVAGLISRLVPQKGLDLLVDVMDYLTLFDLQIVVLGTGDEQYENAFRKFQERYPDKVSANIKFDVELAQKIYAGADIFLMPSRYEPCGLGQMFSMRYGTIPVVRYTGGLADTVKEYDPQSMEGTGFGFKKYDSAHLLKAVSKALHFYYREKDHWRRIMTNAMNTDLSWDRSAKEYVDLYKKALAKVGR | not soluble
MSLSGYAQTTKSEKIDKKLDSIYLKRENYVVSARDKLTIFIFSTRYLNGKLFTNPGIDNYYFPIAPLNIGLGFSHKWLAVNIAILSPKLGKSNYDNSQSKYQNFNLQALAYTPKYGVDIFYSQNLGYFLGNYNGYIDVANAPDKTPYFDMKTNRFTINLLRVFNPVKYSMNATMIGGEMQKNSSSSFIINTSFSLSKFRMSDSIPAFILDQMNQEAIFKGGTFYSISVLPGYGFTWIFSKRFYLGIIPGFGPSFQYKSMTFEDEHENKVAISYRIIAKAGAGFHAKRWTAGISVLYDNERYHLGSKTNIFNNNGKVILKVGYKINVPNWGKGLSKKMSTMQNKFEHTLHNEGHHHHHH | not soluble
MMLITERRSPFYPNIQNVPPSVIRKLVKNKAITLIDVRQPWEYEDHHIPGSILLPLDYFKELFPLVLSKNNLVKNGVAIICEHANRSTWLVYTEPSLFKEVKVYNMLGGIELWMIMGYEIEKGMDDNGTLWYKLLTKNLGLEHHHHHH | not soluble
MSLVKISNVRVRPLVLPLKQPYHWSYGIRESFAVNLIEIEADDGTVGIGECTVAPDQTGTAAILYRLAKHLVGHSPHDVAPLIARIFHQEYLGHGANIMRAANQIFSGIDMAMWDLQGKLAGLPVHQLLGGAHRKAVGYFYFLQGETAEELARDAAVGHAQGERVFYLKVGRGEKLDLEITAAVRGEIGDARLRLDANEGWSVHDAINMCRKLEKYDIEFIEQPTVSWSIPAMAHVREKVGIPIVADQAAFTLYDVYEICRQRAADMICIGPREIGGIQPMMKAAAVAEAAGLKICIHSSFTTGITTCAEHHIGLAIPNLDDGNQIMWQLVQEDIVSSPDLTPKNGWLDAFRKPGLGFQLAEDLVAEGEGRYAASREGHHHHHH | soluble
MSSQDVLIHSDDPCHPANLICTLCKQFFHNNWCTGTGGGISIKDPNTNYYYLAPSGVQKEKMIPEDLFVMDAQTLEYLRSPKLYKPSACTPLFLACYQKKNAGAIIHTHSQNAVICSLLFGDEFRIANIEQIKAIPSGKVDPVTKKPMALSFFDTLKIPIIENMAHEDELIDDLHKTFKDYPDTCAVIVRRHGIFVWGPTIDKAKIFNEAIDYLMELAIKMYQMGIPPDCGIGEEKKHLKMASP | soluble
MRLFECGTLVPGCAWHTRADDDAEVVRRTVDHMRSAHGETIIRENMIENIKSRIRDEANAA | not soluble
AIAPSRQLEDPGAGTPSPVRLHALAGFQQRALCHALTFPSLQRLVYSMCSLCQEENEDMVPDALQQNPGAFRLAPALPARPHRGLSTFPGAEHCLRASPKTTLSGGFFVAVIERVEMPT | soluble
MASKLLRAVILGPPGSGKGTVCQRIAQNFGLQHLSSGHFLRENIKASTEVGEMAKQYIEKSLLVPDHVITRLMMSELENRRGQHWLLDGFPRTLGQAEALDKICEVDLVISLNIPFETLKDRLSRRWIHPPSGRVYNLDFNPPHVHGIDDVTGEPLVQQEDDKPEAVAARPRQYKDVAKPVIELYKSRGVLHQFSGTETNKIWPYVYTLFSNKITPIQSKEAYLEHHHHHH | soluble
GAEVDQATKPAEAKYYIAGTITDATTGQELTTAKVTLGDKSVTSSFNEQVNYKAEGYALVVSADGYYPVKRQVYLNQVSDGQTSVATVNVALVSVEAAVIPPVVPPTDPETDINEGEATKVADKAVEVAKPSESTVTDMLAGTTATPEEKKALDETLEMAGGMKVGETTPEVLADGSILAITPVKFTNPIQDAPAMVPYFYNEGCELTGDVKEVAAPVTRADGAVAADIQKAFLSNAAKALNMNAGFVQKIGYTRISVLNGYSILGYTIKGQLVSKKLTFLISGKYYEGIVSYQKSVMIYPNYYSHDSHDSHDSHGFNPNAGGGSND | soluble
MSGIITILGLGAGELDQLTMGVYRKIKEADHLFVRTKEHPVIEELEKEGVQYTSFDAVYEAHDTFEIVYETIANKLLEQAEGTEIIYAVPGHPLVAERTVQLLLEKGEVSNVEVRIEGGQSFLDPMFASLKIDPIEGFQLLDATSFERGQLELRQHLIFCQVYDAFVASDVKLTLMEMLPDDYEVYIVTAAGTSFEQVKKVPLYMLDHETELNNLTSVYMPPVQERASLYQQFDVLREIIAELRGPNGCPWDKKQTHQSLKKYLIEEAYEVLEAIDEEDDDHLVEELGDILLQVMLHAQIGEDEGWFSIDDIIRTLSEKMVRRHPHVFGNTDVNSADEVIANWEEIKKQEKGFVKESVLNGVPKSLPQLLRAYEIQKKAGKVGFDWVDVQPMIEKALEEWQEFQQEVTNMDEEKMLGEFGDLLFAFVNIARHYKIDPEEALRSTNEKFTGRFLYMEAKVAEMNKEMKDLSLEQLDVLWEEAKQTER | not soluble
MPFKMSSKAQTIKIFNLRSDTNEFIGAGDAYIPPHTGLPANCTDIAPPDIPSSHIAVFDAETQTWNLKEDHRGETVYDTTTGNQMYISEPGPLPENVTSVSPGGGYKKWDSKAKAWVNDEGAEVAARLREAEGTKSRLLQMASGKIAPLQDAVDLGIATDDEKAQLDEWKKYRVLVNRVDTSNPDWPEQPV | not soluble
MGSDKIHHHHHHMTFRGGNTGAKHAVVVGSGPNGLTTAAVLAKAGWQVDVYEAAPTPGGAARSESVLGEGTISDLGAAGHPFGVASPAFHYLGLEDHGLEWAYSPFAMAHPLDYGRAGLLETSLPETAKKLGPDARRWKNLHQGLTKNIDKHLANLLGPVLKWPAHPIRMAKFGPFALLPAKRLASAAFETEEARSLFIGSAMHSVTPPHKPMTASLGLLFGALGMSRGWPVAVGGSGRIVDALVNVINHHGGTIHCDSQIDSLSQFRDTDAIILNQTPSQVLKLKGTDLNAGLPQRMSTWKHGPSSYKVDYLLDGPIPWSNPQVGQATTVHVGGSSEEIAFAEAEVAAGRMPERPFIILCQQQVADPSRAREGRHVVWAYAHVPRGFVDKRAALLITAQIERFAPGFRDRIVHSVDTNAEDLEAWNPNLVGGDITAGSALLRRMPTKIGEKTYMASASNAPGGGVHGMPGWWAAQAVLADHR | not soluble
MSLGETTNLTFLRTDGQNIVTGTGEIFHIRGVTLTNNFWGNWVNGESEKLQSQGMDPIIRPLVQDAWVLTDDDFERIKDLGCNTVLYDINYQLFAEDNPNREENLKKLKEHIRRFSSMDIYTAVMLMAPPGLDSINDAYEKYKHGSERIKSVFEDDTYYEQWVEMWKYLAEELKDFKGVAGYGLINQPRAPSESEGGIGIFRERLNNVCREIRKIDKNHIIFVPEYNSREANPGESYWNEKTNSYVIDNGEQGIIWERGLVKVDSSNVVYLFHFFEPYNFVNDGVGDFDAESLEAQVRKRYEWAKNVGRAPLLTEYGISRVNSVDKRVQWLETVHDIFDKYGISASYFQYKNAVGAFINVKTGFNALYGEYVSWDSEIGLNPFYFVNEHVATSAKENHFDEALKEYYLKGKNLKKISILDNQPILETLQNFWKEGHHHHHH | soluble
MDVIPLSLGLETMGGLVEKVIPRNTTIPVARAQDFTTFKDGQTAMSIHVMQGERELVQDCRSLARFALRGIPALPAGGAHIRVTFQVDADGLLSVTAMEKSTGVEASIQVKPSYGLTDSEIASMIKDSMSYAEQDVKARMLAEQKVEAARVLESLHGALAADAALLSAAERQVIDDAAAHLSEVAQGDDVDAIEQAIKNVDKQTQDFAARRMDQSVRRALKGHSVDE | soluble
MSLVKLKNLTLYLWAVFVVGCTSVPEVSTQAQNPANNKTVSLAELNWQELSLPADINFEFNEKSQVLLDNNSTGPVASFVIPTDRGPVDMVLTSHVGKELTLYEPNVLVTNSKGGVFYHIKSNEFKYIPARLLDGDRVQKQFTIVPQIGADQVNVLIYTTSEDLKGSTTVIHPAKAFAIGTGTQPPMIPDLTAVHSEYGQLNLTVTAVSLTNRTPIRPAIDYVPEIEAKSAYYLNSIQNSVEQGDIDHAMTLVSEAEKLGIPSARATFINAVQSRNEHKEGHHHHHH | soluble
MGSDKIHHHHHHMAKNKTAYVCSECGQDFPRWQGQCNACGEWNTISEVRLAPAKSSAGSVAGYAGAVGGGSKKLSEVEEFEAKKLLTGIGELDRVLCGGLTTGSVNIISGDPGAGKTTILSDLVSRMSQLMPSLYCTAEESLSQFKNRVNRLRLDCNEENLYLMAETNVEAIIAELEAKQVKFAVIDSIQAVVTDLANGSPGSPSQVKGSAQALTQYCKQNNVTMFLVAHVNKNNETAGPQTLIHIVDCLTHLECNDGQVRTLRANKNRFGDVDTVGIFRMTERGMLSVDNPSEIFLSGSTTESPGAAITCIRKGNRNLLLEIQCLTTEAEGEFPQRVCVGLNMNRIKMLTGILRKHTRTKIYHDTYFNLVGGLKIDESETCIDLALVAALLSSLNEFVVPRTTCIMGELSLNGDVRPIDSGVPRVKEAVQHGFTEIFIPFRNYHKSMEGLGAKINPIKTIHELLELIC | not soluble
IDKITYPTRIGAVVFPHKKHQDALGECRGCHEKGPGRIDGFDKVMAHGKGCKGCHEEMKIGPVRCGDCHKGGSTH | soluble
MEVKAFLERETLDRTLGVRYLKAEKDEVVAELVVTPKVHQPFGFLHGGATVALAESVASVGGFLNCPPGHAAFGLEINCNHLRKKREGTIRAVGRPLHVGRTTQVWEVKVYDEEGRLVAASRCTLAVVPLEPAKEPA | soluble
MTGLYIHIPFCATRCSYCDFYSQTNSALRSEYIQALIAEMSIRRAEVTDTIGTLYFGGGTPSLLSPQEIGRIIEQVYRLFSFSSDAEITLEANPDDLNTSYVQELRTLPINRISMGAQSFHDEDLHFLNRRHNARQVLEAVDTCRNAGLTNLSIDLIYGLPGQTPARWQENISAVLALSPPHLSAYHLIYEEGTPLTRLLHAGKVREVDEEVSLELFRMLREQLTGAGYEHYEISNFARSGYHSCHNSSYWQDTPYLGLGPSAHSFDGRRTRRSNPSDIRRYIVSMAAGKPLFTEEILTDNDRYNEVVMTRLRTACGLSPDQIGHLFGKESAERCIRTAAPFIRDGLLHEEADGRIRLTEKGIFLSDRIISEFFIV | not soluble
MGSDKIHHHHHHMSTVIDSNIFNTLVSNTFYSCPLGGAIYDTEGNLIDLNKAMFAHFSLADKHDFIIEHLFNNIVLTDSLKSSLRKGDAIICEEPVTFKVEPIYTDEQGLSGYTLWLTQQGEKETDRENKLLMGQLNESRILMRQALEDGKLAAYSFSFDRFSTCDKRHCNRCFQFYGTTNTLLDKNRFICRALSSVRKPEDSLDFFYLFNKIRDEKLSSHNVTFHLRNQDGTYKMYEISGKSMDIDESGTPHVIIGSIIEKENDELAIADHQKSKDLSLLKSTFLANMTHEIRTPLNAIVGFSDMLGLEDDPEMREQYISMIKENNTALLELINDTLEMSRIESNTINWSYEDVNPLAIMHDVYEYASPRISKNVRLILDDSPNVSLHTDKHKLMLILKKLLSNALRYTEKGEIHFGYQSLYPVSVQFYVSDTGNGIPKDKLGHIFERFVQLNEFQPGTGLGLSICKGLVTAMGGTIWVNSEEGKGSTFSFKLPITPPDTIS | not soluble
